Two molecules from patent US20250346673A1 (DUALITY BIOLOGICS SUZHOU, published 2025) can be followed below.

Assay [1] has as its target T1, human FcγRIIA (H167) (human, UniProt P12318 36-218, limits assumed, biotinylated (site not stated)).
T1 construct: also called Fey RIIA (H167)
T1 sequence (looked up): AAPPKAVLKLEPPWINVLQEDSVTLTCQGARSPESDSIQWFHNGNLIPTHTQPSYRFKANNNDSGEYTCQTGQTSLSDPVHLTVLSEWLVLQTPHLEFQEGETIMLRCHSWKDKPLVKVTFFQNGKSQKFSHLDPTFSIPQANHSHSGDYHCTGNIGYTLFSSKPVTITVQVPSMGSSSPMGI
In words: SPR, FcγRIIA (H167); against the wild-type Fc antibody Hu033-20. The method, then: (§1) Antibody kinetics or affinity parameters were measured using BIAcore 8K and freshly fixed biotinylated human Fe γ RIIA(R167)/Fc γ RIIA (H167) SA chips. The experiment was run at 25° C. with a running buffer of 1×HBS-EP+(10 mM HEPES pH 7.4, 150 mM NaCl, 3 mM EDTA, 0.05% Surfactant P20). […] The binding and dissociation times of the antibody were 60 and 90 seconds, respectively. Two zero concentration samples are used to remove background signals. The sample was injected in a multi cycle manner, the analyte can be fully dissociated from the chip surface at the end of each cycle, and no regeneration step was applied. Data analysis was perform using Biacore Insight Evaluation Software (Version 2.0.15.12933). After deducting the reference channel (flow cell 1) and two zero concentration signals, affinity analysis was performed using a 1:1 binding model or steady-state model for curve fitting and calculation of kinetic parameters.
On the technique in general: SPR reads the build-up and loss of mass on a sensor chip optically.

For assay [2], the target named is T2, human FcγRIIA (R167) (human, UniProt P12318 36-218, limits assumed, biotinylated (site not stated)).
T2 construct: also called Fe γ RIIA(R167); Fcγ RIJA (R167)
T2 sequence (looked up): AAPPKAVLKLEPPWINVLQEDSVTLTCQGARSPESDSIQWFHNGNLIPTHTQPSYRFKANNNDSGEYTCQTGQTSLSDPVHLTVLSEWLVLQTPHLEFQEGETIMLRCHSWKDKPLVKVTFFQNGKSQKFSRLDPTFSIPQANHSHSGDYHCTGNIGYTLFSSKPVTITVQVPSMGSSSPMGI
Nature of the assay: SPR, FcγRIIA (R167); against the wild-type Fc antibody Hu033-20. The method, then: as §1

Assay [3] has as its target T1, human FcγRIIA (H167). In words: SPR (BIAcore 8K), biotinylated FcγRIIA (H167) on SA chip, antibody as analyte, 1:1 binding.
The target in assay [4] is T2, human FcγRIIA (R167). In words: SPR (BIAcore 8K), biotinylated FcγRIIA (R167) on SA chip, antibody as analyte, 1:1 binding.

B1: Hu033-20-T2 (antibody, human IgG1, kappa)
heavy: EVQLVESGGGLVKPGGSLRLSCAASGFTFRSYGMSWVRQAPGKRLEWVSTISSGDSYTYYPDSVKGRFTISRDNAKNSLYLQMNSLKAEDTAVYYCARQIYYDYAYYFDFWGQGTTVTVSSASTKGPSVFPLAPSSKSTSGGTAALGCLVKDYFPEPVTVSWNSGALTSGVHTFPAVLQSSGLYSLSSVVTVPSSSLGTQTYICNVNHKPSNTKVDKKVEPKSCDKTHTCPPCPAPELLAGPDVFLFPPKPKDTLMISRTPEVTCVVVDVSHEDPEVKFNWYVDGVEVHNAKTKPREEQYNSTYRVVSVLTVLHQDWLNGKEYKCKVSNKALPAPEEKTISKAKGQPREPQVYTLPPSRDELTKNQVSLTCLVKGFYPSDIAVEWESNGQPENNYKTTPPVLDSDGSFFLYSKLTVDKSRWQQGNVFSCSVMHEALHNHYTQKSLSLSPGK
light: DIVMTQSPDSLAVSLGERATINCRASESVSFRTSHLMHWYQQKPGQPPKLLIYGASNLESGVPDRFSGSGSGTDFTLTISSLQAEDVAVYYCQQSIEDPPTFGGGTKVEIKRTVAAPSVFIFPPSDEQLKSGTASVVCLLNNFYPREAKVQWKVDNALQSGNSQESVTEQDSKDSTYSLSSTLTLSKADYEKHKVYACEVTHQGLSSPVTKSFNRGEC
notes: Fc-mutated Hu033-20 (IgG1)
Regarding B1, the Multiple of affinity in assay [1] is 12.1 fold. The Multiple of affinity in assay [2] came out at 17.7 fold. Further, in assay [3], the Kd was found to be 95.5 nM, the koff came to 0.0577 s⁻¹ and the kon is 604000 M⁻¹ s⁻¹. In assay [4], binding was put at a Kd of 41.1 nM, the koff was 0.0821 s⁻¹ and the kon was 2e+06 M⁻¹ s⁻¹.

B2: Hu033-20-T3 (antibody, human IgG1, kappa)
heavy: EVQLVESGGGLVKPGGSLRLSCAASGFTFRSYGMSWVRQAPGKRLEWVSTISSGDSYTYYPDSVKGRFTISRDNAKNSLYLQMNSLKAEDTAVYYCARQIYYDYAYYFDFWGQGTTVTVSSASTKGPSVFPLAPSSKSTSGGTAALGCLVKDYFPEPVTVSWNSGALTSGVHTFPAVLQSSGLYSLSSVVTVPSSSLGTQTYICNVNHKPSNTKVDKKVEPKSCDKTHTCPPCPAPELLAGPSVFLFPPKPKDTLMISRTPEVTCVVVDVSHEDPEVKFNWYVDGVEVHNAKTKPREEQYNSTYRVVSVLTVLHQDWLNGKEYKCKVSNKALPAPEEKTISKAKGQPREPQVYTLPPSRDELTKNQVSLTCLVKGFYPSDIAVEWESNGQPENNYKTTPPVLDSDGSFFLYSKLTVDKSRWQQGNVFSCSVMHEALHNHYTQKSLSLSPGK
light: DIVMTQSPDSLAVSLGERATINCRASESVSFRTSHLMHWYQQKPGQPPKLLIYGASNLESGVPDRFSGSGSGTDFTLTISSLQAEDVAVYYCQQSIEDPPTFGGGTKVEIKRTVAAPSVFIFPPSDEQLKSGTASVVCLLNNFYPREAKVQWKVDNALQSGNSQESVTEQDSKDSTYSLSSTLTLSKADYEKHKVYACEVTHQGLSSPVTKSFNRGEC
notes: Fc-mutated Hu033-20 (IgG1)
For the molecule B2, the figures for the Multiple of affinity in assay [1] and in assay [2] were 8.7 fold and 6.3 fold, respectively. Further, the Kd stood at 154 nM in assay [3] and 279 nM in assay [4]. Also, the koff came to 0.087 s⁻¹ in assay [3] and 0.191 s⁻¹ in assay [4]. The on-rate constant (kon) in assay [3] is 563000 M⁻¹ s⁻¹; in assay [4], 683000 M⁻¹ s⁻¹.

The term Kd denotes a measure of binding affinity in units of concentration. A lower Kd goes with a tighter complex. For orientation: koff means a measure of how fast the partners let go of each other. The low end stands for slow dissociation, the high end for fast dissociation. As a reminder, the kon is a measure of how fast the partners come together.
